Experiment [1] deals with GPIb-mIgG2aFc chimeric protein (N-terminus side region of human glycoprotein Ib, amino acid numbers 1-319, fused to the Fc region of mouse immunoglobulin γ2a) (human (glycoprotein Ib part); mouse (immunoglobulin γ2a Fc part)). Put plainly: Eu-labelled vWF (500 ng/ml) on captured chimeric protein, ristocetin 0 mg/ml, no inhibitor.
For experiment [2] the target is unchanged. Put plainly: Eu-labelled vWF (500 ng/ml) on captured chimeric protein, ristocetin 1 mg/ml, no inhibitor.
The target is the same in experiment [3]. The experiment in a line: Eu-labelled vWF (500 ng/ml) on captured chimeric protein, ristocetin 2 mg/ml, no inhibitor.
Experiment [4] has the same target. Put plainly: Eu-labelled vWF (500 ng/ml) on captured chimeric protein, ristocetin 0.5 mg/ml, no inhibitor.
The target is the same in experiment [5]. The experiment in a line: Eu-labelled vWF (500 ng/ml) on captured chimeric protein, ristocetin 0.25 mg/ml, no inhibitor.
Experiment [6] has the same target. Put plainly: Eu-labelled vWF on captured chimeric protein, ristocetin 0 mg/ml, competitor recombinant AS1051 at 20 µg/ml.
Experiment [7] shares this target. Put plainly: Eu-labelled vWF on captured chimeric protein, ristocetin 1 mg/ml, competitor recombinant AS1051 at 20 µg/ml.
Experiment [8] has the same target. The experiment in a line: Eu-labelled vWF on captured chimeric protein, ristocetin 2 mg/ml, competitor recombinant AS1051 at 20 µg/ml.
For experiment [9] the target is unchanged. The experiment in a line: Eu-labelled vWF on captured chimeric protein, ristocetin 0.5 mg/ml, competitor recombinant AS1051 at 20 µg/ml.
Experiment [10] shares this target. The experiment in a line: Eu-labelled vWF on captured chimeric protein, ristocetin 0.25 mg/ml, competitor recombinant AS1051 at 20 µg/ml.
Experiment [11] shares this target. The experiment in a line: Eu-labelled vWF with botrocetin on captured chimeric protein, in the presence of the competitor AJvW-2 (as the table names it).
The target is the same in experiment [12]. Put plainly: Eu-labelled vWF (500 ng/ml solution) with botrocetin (500 ng/ml) on chimeric protein captured by anti-mouse immunoglobulin antibodies, no inhibitor.
The target in experiment [13] is T1, human von Willebrand factor (human, UniProt P04275 764-2813).
T1 construct: also called vWF; von Willebrand factor labeled with europium (Eu)
The experiment in a line: ELISA: GPIb-mIgGlFc culture supernatant on vWF immobilised with botrocetin, detected with biotinylated anti-mouse IgG-Fc antibodies. On the procedure:
Immobilization of a mixed solution of von Willebrand factor and botrocetin on a 96-well multititer plate was attained as follows. First, a physiological saline solution of von Willebrand factor (250 μg/ml) and a physiological saline solution of botrocetin (500 μg/ml), which were prepared in a conventional manner, were appropriately diluted, and mixed at the concentration ratios shown in FIG. 2. Then, 50 μl of each mixture was added to each well of a 96-well multititer plate (Maxisorp, produced by Nunc). The plate was left stand overnight at 4° C., and then each well was washed once with a physiological Tris buffer (150 μl, 20 mM Tris-HCl (pH 7.4), 0.15 M sodium chloride; Tris buffered saline, referred to as “TBS” hereinafter). Then, each well was added with 100 μl of TBS containing 10% BSA (bovine serum albumin), left stand for about 3 hours, and washed 3 times with TBS to obtain a von Willebrand factor immobilized plate. […]
For orientation: An ELISA detects its analyte on a solid surface through an enzyme-linked reagent.

Experiment [14] addresses T1, human von Willebrand factor. The experiment in a line: Ratio of control count to count with AS1051; Eu-labelled chimeric protein on vWF immobilised with botrocetin. How it is done: The binding of the europium (Eu) labeled chimeric protein and the von Willebrand factor immobilized in the presence of botrocetin prepared as described above was detected as follows. According to the method mentioned in Example 4 <1>, a mixed solution (TBS) containing 2.5 μg/ml of von Willebrand factor and 2.5 μg/ml of botrocetin was added to each well of a 96-well multititer plate (microtitration plate DELFIA, 1244-550, produced by Wallac), immobilized overnight and subjected to washing, blocking and washing to prepare a von Willebrand factor immobilized plate.
Each well of the above plate was added with 25 μl of an assay buffer containing 0.5% BSA (Assay Buffer, Wallac DELFIA 1244-106, produced by Wallac, Composition: 0.5% BSA, 0.05% bovine γ-globulin, 0.01% Tween-40, 20 μM DTPA (diethylenetriamine […] acid), 50 mM Tris-HCl buffered saline (pH 7.8), 0.05% sodium azide) or the recombinant AS1051 (in which Cys81 was replaced with Ala, N. Fukuchiet al., WO 95/08573) at a final concentration of 20 μg/ml as the binding inhibition substance, further added with 25 μl of a solution of europium. […] Then, the amount of europium (Eu) was measured by using a DELFIA Research fluorophotometer (1230 ARCUS Fluorometer, produced by Wallac, measurement time: 1 second). […]

Experiment [15] has the same target. The experiment in a line: Ratio of control count to count with inhibitor; Eu-labelled chimeric protein on immobilised vWF, botrocetin in liquid phase. On the procedure:
A TBS solution (50 μl) containing human von Willebrand factor (2.5 μg/ml) was added to each well of a 96-well plate, and the von Willebrand factor was immobilized as a solid phase overnight at 4° C. Each well was washed once with TBS (150 μl) and blocked with TBS containing 5% BSA for about 3 hours. Each well of the plate was washed twice with TBS (150 μl), and then added with 25 μl of an assay buffer (Assay Buffer, Wallac DELFIA 1244-106, produced by Wallac, composition was mentioned in Example 4 <2>) or a recombinant AS1051 (in which Cys81 was replaced with Ala) at a final concentration of 20 μg/ml, further added with the assay buffer (25 μl) containing the europium (Eu)-labeled chimeric protein prepared in Example 4 <2> (100 ng/ml) and botrocetin (500 ng/ml), and left stand at room temperature for 3 hours. Each well of the plate was washed 5 times with TBS ([…]) containing 0.05% Tween-20, then added with 100 μl of a fluorescence enhancement buffer (Enhancement solution, 1244-104, produced by Wallac, composition was mentioned in Example 4 <2>), and shaken for 1 minute. Then, the amount of europium (Eu) was measured by using a 1420 ARVO multi-label counter (produced by Wallac, measurement time: 1 second). The measured values (with no addition of sample or addition of the inhibition sample) and CV value (deviation, %) are shown in Table 2.

“human von Willebrand factor (from UniProt P04275 764-2813) (ligand)”: the Binding amount (count) in experiment [1] stood at 2820 counts; in experiment [2], 13300 counts; in experiment [3] it was 46200 counts; in experiment [4], 3660 counts; in experiment [5], 3010 counts. In addition, the Binding amount in the presence of inhibition substance (count) in experiment [6] is 3250 counts; in experiment [7], 3020 counts; in [8], 6880 counts; in [9], 1850 counts; in experiment [10], 3080 counts. Moreover, the Average value of count with addition of AJvW-2 (10 µg/ml) in [11] was 2340 counts. Moreover, the Average value of count in control in [12] was 37300 counts.

B1: GPIb-mIgGlFc chimeric protein (N-terminal region of human glycoprotein Ibα chain fused to the Fc region of mouse immunoglobulin γ1) (Fc fusion)
chain: HPICEVSKVASHLEVNCDKRNLTALPPDLPKDTTILHLSENLLYTFSLATLMPYTRLTQLNLDRCELTKLQVDGTLPVLGTLDLSHNQLQSLPLLGQTLPALTVLDVSFNRLTSLPLGALRGLGELQELYLKGNELKTLPPGLLTPTPKLEKLSLANNNLTELPAGLLNGLENLDTLLLQENSLYTIPKGFFGSHLLPFAFLHGNPWLCNCEILYFRRWLQDNAENVYVWKQGVDVKAMTSNVASVQCDNSDKFPVYKYPGKGCPTLGDEGDTDLYDYYPEEDTEGDKVRATRTVVKFPTKAHTTPWGLFYSWSTASLDVPRDCGCKPCICTVPEVSSVFIFPPKPKDVLTITLTPKVTCVVVDISKDDPEVQFSWFVDDVEVHTAQTQPREEQFNSTFRSVSELPIMHQDWLNGKEFKCRVNSAAFPAPIEKTISKTKGRPKAPQVYTIPPPKEQMAKDKVSLTCMITDFFPEDITVEWQWNGQPAENYKNTQPIMDTDGSYFVYSKLNVQKSNWEAGNTFTCSVLHEGLHNHHTEKSLSHSPGK
notes: Used as serum-free culture supernatant of transfected CHOdhfr- cells, diluted 8-fold, not purified; also called GPIb-mIgG1Fc; GPIbFcFH
In the case of B1, in experiment [13], the binding result is on record as “binds”.

B2: GPIb-mIgG2aFc chimeric protein (N-terminus side region of human glycoprotein Ib, amino acid numbers 1-319, fused to the Fc region of mouse immunoglobulin γ2a) (Fc fusion)
chain: HPICEVSKVASHLEVNCDKRNLTALPPDLPKDTTILHLSENLLYTFSLATLMPYTRLTQLNLDRCELTKLQVDGTLPVLGTLDLSHNQLQSLPLLGQTLPALTVLDVSFNRLTSLPLGALRGLGELQELYLKGNELKTLPPGLLTPTPKLEKLSLANNNLTELPAGLLNGLENLDTLLLQENSLYTIPKGFFGSHLLPFAFLHGNPWLCNCEILYFRRWLQDNAENVYVWKQGVDVKAMTSNVASVQCDNSDKFPVYKYPGKGCPTLGDEGDTDLYDYYPEEDTEGDKVRATRTVVKFPTKAHTTPWGLFYSWSTASLDEPRGPTIKPCPPCKCPAPNLLGGPSVFIFPPKIKDVLMISLSPIVTCVVVDVSEDDPDVQISWFVNNVEVHTAQTQTHREDYNSTLRVVSALPIQHQDWMSGKEFKCKVNNKDLPAPIERTISKPKGSVRAPQVYVLPPPEEEMTKKQVTLTCMVTDFMPEDIYVEWTNNGKTELNYKNTEPVLDSDGSYFMYSKLRVEKKNWVERNSYSCSVVHEGLHNHHTTKSFSRTPGK
notes: Purified on Protein A from CHOK1 culture supernatant; also called europium (Eu) labeled chimeric protein
With B2, the S/N ratio is 28.5 in experiment [14] and 35 in [15].
